Test results: article PMC8894357 (2022)

Target: T1, Human β-catenin, GST tagged (human, UniProt P35222 1-781)
T1 chain: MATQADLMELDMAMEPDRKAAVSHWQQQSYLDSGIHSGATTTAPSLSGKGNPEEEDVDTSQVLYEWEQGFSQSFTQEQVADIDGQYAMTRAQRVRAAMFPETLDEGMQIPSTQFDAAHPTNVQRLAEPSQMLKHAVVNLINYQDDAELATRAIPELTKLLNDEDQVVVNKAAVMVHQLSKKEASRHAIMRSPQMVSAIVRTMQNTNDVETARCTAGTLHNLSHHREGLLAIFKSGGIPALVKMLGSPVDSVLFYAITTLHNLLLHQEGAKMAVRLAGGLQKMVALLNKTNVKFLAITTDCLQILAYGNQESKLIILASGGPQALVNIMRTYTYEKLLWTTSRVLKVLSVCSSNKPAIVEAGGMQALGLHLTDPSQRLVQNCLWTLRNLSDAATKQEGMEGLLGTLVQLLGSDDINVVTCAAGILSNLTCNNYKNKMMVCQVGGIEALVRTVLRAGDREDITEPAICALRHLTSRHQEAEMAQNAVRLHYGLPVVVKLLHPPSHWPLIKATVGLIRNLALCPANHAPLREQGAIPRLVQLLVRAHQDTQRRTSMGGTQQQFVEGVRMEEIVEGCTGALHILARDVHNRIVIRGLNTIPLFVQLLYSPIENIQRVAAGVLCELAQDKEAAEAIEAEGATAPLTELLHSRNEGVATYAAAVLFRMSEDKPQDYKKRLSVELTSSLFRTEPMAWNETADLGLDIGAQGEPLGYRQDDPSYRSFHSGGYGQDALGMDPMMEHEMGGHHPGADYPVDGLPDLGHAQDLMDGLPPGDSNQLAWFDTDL

B1: αE-catenin, monomeric fraction (mouse, full length, His(6x) tagged) (natural protein)
chain: MTAVHAGNINFKWDPKSLEIRTLAVERLLEPLVTQVTTLVNTNSKGPSNKKRGRSKKAHVLAASVEQATENFLEKGDKIAKESQFLKEELVVAVEDVRKQGDLMKSAAGEFADDPCSSVKRGNMVRAARALLSAVTRLLILADMADVYKLLVQLKVVEDGILKLRNAGNEQDLGIQYKALKPEVDKLNIMAAKRQQELKDVGNRDQMAAARGILQKNVPILYTASQACLQHPDVAAYKANRDLIYKQLQQAVTGISNAAQATASDDAAQHQGGSGGELAYALNNFDKQIIVDPLSFSEERFRPSLEERLESIISGAALMADSSCTRDDRRERIVAECNAVRQALQDLLSEYMGNAGRKERSDALNSAIDKMTKKTRDLRRQLRKAVMDHVSDSFLETNVPLLVLIEAAKNGNEKEVKEYAQVFREHANKLIEVANLACSISNNEEGVKLVRMSASQLEALCPQVINAALALAAKPQSKLAQENMDLFKEQWEKQVRVLTDAVDDITSIDDFLAVSENHILEDVNKCVIALQEKDVDGLDRTAGAIRGRAARVIHVVTSEMDNYEPGVYTEKVLEATKLLSNTVMPRFTEQVEAAVEALSSDPAQPMDENEFIDASRLVYDGIRDIRKAVLMIRTPEELDDSDFETEDFDVRSRTSVQTEDDQLIAGQSARAIMAQLPQEQKAKIAEQVASFQEEKSKLDAEVSKWDDSGNDIIVLAKQMCMIMMEMTDFTRGKGPLKNTSDVISAAKKIAEAGSRMDKLGRTIADHCPDSACKQDLLAYLQRIALYCHQLNICSKVKAEVQNLGGELVVSGVDSAMSLIQAAKNLMNAVVQTVKASYVASTKYQKSQGMASLNLPAVSWKMKAPEKKPLVKREKQDETQTKIKRASQKKHVNPVQALSEFKAMDSI
**Q.** For B1, which Kd is on record?
**A.** 35 nM
